Here are results for 1 substance from publication PMC8930179.

The stoichiometry N is a count of units in the complex or per binding partner.

This test addresses B38-CAP. Nature of the test: SEC. On the technique in general: Size exclusion chromatography separates by hydrodynamic size, large species first.

With B38-CAP (enzyme), the stoichiometry N stood at 2.
